{
  "source": "patent US20080207488A1",
  "about": "“Method for Detecting Peptides Comprising a Cross-B Structure” (priority 2005, published 2008)",
  "key": {"U937 monocytes": {"test_system": "U937 monocytes", "assay": "TNFα RNA upregulation in U937 monocytes (RT-PCR)", "format": "cell-based, human", "details": "1 h stimulation; 100 μg ml^−1 amyloid endostatin, 260 μg ml^−1 Hb-AGE; LPS 1 μg ml^−1; normalized to 18S", "protocol": "U937 monocytes were cultured in six-wells plates. Cells were stimulated with buffer (negative control), 1 μg ml^−1 LPS (positive control), 100 μg ml^−1 amyloid endostatin^1,7, 260 μg ml^−1 Hb-AGE and 260 μg ml^−1 control Hb. After 1 h of stimulation, cells were put on ice. After washing RNA was isolated and quantified spectrophotometrically. Normalized amounts of RNA were used for 26 cycli of RT-PCR with human TNFα primer and 18 cycli of RT-PCR with ribosomal 18S primer for normalization purposes. DNA was analyzed on a 2% agarose gel."}, "factor XII": {"biological_target": "T1, factor XII (Homo sapiens, UniProt P00748)", "T1 construct": "purchased Calbiochem, EMD Biosciences #233490", "T1 sequence (P00748 20-615)": "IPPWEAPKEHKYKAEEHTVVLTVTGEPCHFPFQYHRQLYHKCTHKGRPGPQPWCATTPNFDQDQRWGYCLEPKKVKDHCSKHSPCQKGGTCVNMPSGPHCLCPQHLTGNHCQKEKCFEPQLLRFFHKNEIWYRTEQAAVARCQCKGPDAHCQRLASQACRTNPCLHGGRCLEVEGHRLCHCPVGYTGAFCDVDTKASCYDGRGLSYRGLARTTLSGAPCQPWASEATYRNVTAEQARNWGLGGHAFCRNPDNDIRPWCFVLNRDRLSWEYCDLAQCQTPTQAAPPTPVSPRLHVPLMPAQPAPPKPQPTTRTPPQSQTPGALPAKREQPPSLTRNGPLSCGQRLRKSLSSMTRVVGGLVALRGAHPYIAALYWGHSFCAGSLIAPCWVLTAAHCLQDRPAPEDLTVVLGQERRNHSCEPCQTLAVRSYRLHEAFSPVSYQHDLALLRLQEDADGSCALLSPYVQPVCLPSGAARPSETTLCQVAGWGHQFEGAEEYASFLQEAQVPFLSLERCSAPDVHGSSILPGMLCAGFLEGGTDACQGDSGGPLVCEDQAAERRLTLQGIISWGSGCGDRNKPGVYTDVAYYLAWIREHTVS", "assay": "Factor XII auto-activation assay with substrate S-2222", "format": "biochemical", "details": "purified factor XII, 100 μg ml^−1 FP13 K157G, 10 μg ml^−1 Aβ(1-40) E22Q, 10 μg ml^−1 Hb-AGE, DXS500k 1 μg ml^−1 as comparator", "protocol": "Plasmin (Pls) activity was assayed as described^7. Peptides and proteins that were tested for their stimulatory ability were regularly used at 100 μg ml^−1. […] Chromogenic substrate S-2251 (Chromogenix, Instrumentation Laboratory SpA, Milano, Italy) was used to measure Pls activity. Conversion of zymogen factor XII (#233490, Calbiochem, EMD Biosciences, Inc., San Diego, Calif.) to proteolytically active factor XII (factor XIIa) was assayed by measurement of the conversion of chromogenic substrate Chromozym-PK (Roche Diagnostics, Almere, The Netherlands) by kallikrein. Chromozym-PK was used at a concentration of 0.3 mM. Factor XII, human plasma prekallikrein (#529583, Calbiochem) and human plasma cofactor high-molecular weight kininogen (#422686, Calbiochem) were used at concentrations of 1 μg ml^−1. […] Assays were performed using microtiter plates (Costar, Cambridge, Mass., USA). […] The conversion of Chromozym-PK was recorded kinetically at 37° C. for at least 60 minutes. […] With S-2222, activation of factor XII in plasma was measured, using 60% v/v plasma, diluted with substrate and H2O with or without potential cofactor. Furthermore, auto-activation of factor XII was measured by incubating 53 μg ml^−1 purified factor XII in 50 mM Tris-HCl buffer pH 7.5 with 1 mM EDTA and 0.001% v/v Triton-X100, with S-2222 and H2O with or without potential cofactor."}, "tPA": {"biological_target": "T2, tPA (Homo sapiens, UniProt P00750)", "T2 construct": "purchased Boehringer-Ingelheim (Actilyse, Alteplase)", "T2 sequence (P00750 36-562)": "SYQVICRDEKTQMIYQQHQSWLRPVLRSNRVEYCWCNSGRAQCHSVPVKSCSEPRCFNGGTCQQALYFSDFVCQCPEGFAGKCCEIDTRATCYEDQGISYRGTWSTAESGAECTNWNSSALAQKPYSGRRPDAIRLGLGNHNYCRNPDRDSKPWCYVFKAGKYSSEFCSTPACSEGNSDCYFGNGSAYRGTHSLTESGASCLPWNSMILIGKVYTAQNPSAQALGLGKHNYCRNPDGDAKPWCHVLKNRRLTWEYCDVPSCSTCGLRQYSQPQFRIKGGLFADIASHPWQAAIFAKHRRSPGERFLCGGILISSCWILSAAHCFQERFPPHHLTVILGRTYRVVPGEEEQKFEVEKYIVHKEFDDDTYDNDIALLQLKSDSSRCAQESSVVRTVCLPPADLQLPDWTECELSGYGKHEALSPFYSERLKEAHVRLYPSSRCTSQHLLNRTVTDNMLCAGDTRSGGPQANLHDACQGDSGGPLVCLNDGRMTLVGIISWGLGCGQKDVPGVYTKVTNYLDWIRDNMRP", "assay": "tPA ELISA with proteins pre-incubated with DXS500k", "format": "binding"}},
  "data": [
    {"substance": "Hb-AGE: human haemoglobin incubated 32 weeks at 37° C. with glucose-6-phosphate", "values": [
      {"measurement": "TNFα RNA expression when compared to LPS", "setting": "U937 monocytes", "value": "approximately 30%"}
    ]},
    {"substance": "freshly dissolved FP13 K157G: FP13 K157G peptide freshly dissolved, not aggregated (KRLEVDIDIGIRS)", "values": [
      {"measurement": "potency to induce factor XII auto-activation", "setting": "factor XII", "value": "did not or hardly auto-activate factor XII"}
    ]},
    {"substance": "factor XII: zymogen factor XII (Calbiochem), here pre-incubated with DXS500k", "values": [
      {"measurement": "tPA binding to protein pre-incubated overnight with DXS500k", "setting": "tPA", "value": "binds specifically"}
    ]}
  ]
}
